Measurements as given in IntAct's records for PubMed 31515488.

B1: Proline-rich protein 3 (Homo sapiens), P79522 (parent)
chain: MPKRKKQNHHQPPTQQQPPLPEREETGDEEDGSPIGPPSLLGPPPMANGKPGDPKSALHRGPPGSRGPLIPPLLSLPPPPWGRGPIRRGLGPRSSPYGRGWWGVNAEPPFPGPGHGGPTRGSFHKEQRNPRRLKSWSLIKNTCPPKDDPQVMEDKSDRPVCRHFAKKGHCRYEDLCAFYHPGVNGPPL
partner: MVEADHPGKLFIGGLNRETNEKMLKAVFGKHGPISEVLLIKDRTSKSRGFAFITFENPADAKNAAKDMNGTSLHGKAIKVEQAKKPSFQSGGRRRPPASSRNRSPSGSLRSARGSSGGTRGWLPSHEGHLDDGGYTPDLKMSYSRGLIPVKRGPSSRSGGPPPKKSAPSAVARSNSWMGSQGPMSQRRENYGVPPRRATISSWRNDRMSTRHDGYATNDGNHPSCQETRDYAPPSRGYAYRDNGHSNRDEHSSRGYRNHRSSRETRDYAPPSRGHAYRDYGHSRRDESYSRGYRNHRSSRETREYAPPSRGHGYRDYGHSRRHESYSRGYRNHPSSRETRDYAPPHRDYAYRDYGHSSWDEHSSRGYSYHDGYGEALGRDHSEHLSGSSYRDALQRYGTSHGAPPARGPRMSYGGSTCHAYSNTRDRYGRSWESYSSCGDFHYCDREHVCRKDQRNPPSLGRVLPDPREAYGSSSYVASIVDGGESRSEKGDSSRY
B2: Tuftelin-interacting protein 11 (Homo sapiens), Q9UBB9 (parent)
chain: MSLSHLYRDGEGRIDDDDDERENFEITDWDLQNEFNPNRQRHWQTKEEATYGVWAERDSDDERPSFGGKRARDYSAPVNFISAGLKKGAAEEAELEDSDDEEKPVKQDDFPKDFGPRKLKTGGNFKPSQKGFAGGTKSFMDFGSWERHTKGIGQKLLQKMGYVPGRGLGKNAQGIINPIEAKQRKGKGAVGAYGSERTTQSMQDFPVVDSEEEAEEEFQKELSQWRKDPSGSKKKPKYSYKTVEELKAKGRISKKLTAPQKELSQVKVIDMTGREQKVYYSYSQISHKHNVPDDGLPLQSQQLPQSGKEAKAPGFALPELEHNLQLLIDLTEQEIIQNDRQLQYERDMVVNLFHELEKMTEVLDHEERVISNLSKVLEMVEECERRMQPDCSNPLTLDECARIFETLQDKYYEEYRMSDRVDLAVAIVYPLMKEYFKEWDPLKDCTYGTEIISKWKSLLENDQLLSHGGQDLSADAFHRLIWEVWMPFVRNIVTQWQPRNCDPMVDFLDSWVHIIPVWILDNILDQLIFPKLQKEVENWNPLTDTVPIHSWIHPWLPLMQARLEPLYSPIRSKLSSALQKWHPSDSSAKLILQPWKDVFTPGSWEAFMVKNIVPKLGMCLGELVINPHQQHMDAFYWVIDWEGMISVSSLVGLLEKHFFPKWLQVLCSWLSNSPNYEEITKWYLGWKSMFSDQVLAHPSVKDKFNEALDIMNRAVSSNVGAYMQPGARENIAYLTHTERRKDFQYEAMQERREAENMAQRGIGVAASSVPMNFKDLIETKAEEHNIVFMPVIGKRHEGKQLYTFGRIVIYIDRGVVFVQGEKTWVPTSLQSLIDMAK
partner: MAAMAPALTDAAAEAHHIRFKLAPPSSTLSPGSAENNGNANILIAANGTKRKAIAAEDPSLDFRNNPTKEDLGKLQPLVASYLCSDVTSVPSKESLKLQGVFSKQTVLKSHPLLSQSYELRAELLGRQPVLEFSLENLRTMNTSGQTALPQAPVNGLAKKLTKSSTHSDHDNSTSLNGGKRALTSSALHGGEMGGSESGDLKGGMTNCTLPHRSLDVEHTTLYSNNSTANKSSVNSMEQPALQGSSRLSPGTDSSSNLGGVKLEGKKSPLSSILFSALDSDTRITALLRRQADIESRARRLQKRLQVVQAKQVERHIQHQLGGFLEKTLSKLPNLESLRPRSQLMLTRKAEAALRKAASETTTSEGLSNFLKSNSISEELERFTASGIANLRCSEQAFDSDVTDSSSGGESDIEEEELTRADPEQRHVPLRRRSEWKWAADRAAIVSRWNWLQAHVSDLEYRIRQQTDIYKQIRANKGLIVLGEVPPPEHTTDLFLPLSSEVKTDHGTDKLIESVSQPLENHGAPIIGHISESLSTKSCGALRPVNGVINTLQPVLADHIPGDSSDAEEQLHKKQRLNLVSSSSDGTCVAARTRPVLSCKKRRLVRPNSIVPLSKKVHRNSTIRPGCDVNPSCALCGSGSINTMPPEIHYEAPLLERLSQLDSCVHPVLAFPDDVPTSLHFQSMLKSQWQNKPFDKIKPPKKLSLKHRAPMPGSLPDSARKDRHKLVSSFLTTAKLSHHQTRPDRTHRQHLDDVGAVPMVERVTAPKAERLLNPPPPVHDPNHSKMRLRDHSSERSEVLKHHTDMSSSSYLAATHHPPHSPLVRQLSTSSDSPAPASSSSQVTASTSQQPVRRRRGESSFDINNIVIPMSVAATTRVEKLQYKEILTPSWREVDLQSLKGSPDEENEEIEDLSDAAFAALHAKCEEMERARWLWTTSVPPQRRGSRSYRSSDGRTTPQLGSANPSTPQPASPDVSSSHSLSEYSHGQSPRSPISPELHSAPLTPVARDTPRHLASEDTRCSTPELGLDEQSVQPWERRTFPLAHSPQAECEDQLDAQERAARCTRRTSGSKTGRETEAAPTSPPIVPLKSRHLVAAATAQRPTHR
B3: Proteasome inhibitor PI31 subunit (Homo sapiens), Q92530 (parent)
chain: MAGLEVLFASAAPAITCRQDALVCFLHWEVVTHGYFGLGVGDQPGPNDKKSELLPAGWNNNKDLYVLRYEYKDGSRKLLVKAITVESSMILNVLEYGSQQVADLTLNLDDYIDAEHLGDFHRTYKNSEELRSRIVSGIITPIHEQWEKANVSSPHREFPPATAREVDPLRIPPHHPHTSRQPPWCDPLGPFVVGGEDLDPFGPRRGGMIVDPLRSGFPRALIDPSSGLPNRLPPGAVPPGARFDPFGPIGTSPPGPNPDHLPPPGYDDMYL
partner: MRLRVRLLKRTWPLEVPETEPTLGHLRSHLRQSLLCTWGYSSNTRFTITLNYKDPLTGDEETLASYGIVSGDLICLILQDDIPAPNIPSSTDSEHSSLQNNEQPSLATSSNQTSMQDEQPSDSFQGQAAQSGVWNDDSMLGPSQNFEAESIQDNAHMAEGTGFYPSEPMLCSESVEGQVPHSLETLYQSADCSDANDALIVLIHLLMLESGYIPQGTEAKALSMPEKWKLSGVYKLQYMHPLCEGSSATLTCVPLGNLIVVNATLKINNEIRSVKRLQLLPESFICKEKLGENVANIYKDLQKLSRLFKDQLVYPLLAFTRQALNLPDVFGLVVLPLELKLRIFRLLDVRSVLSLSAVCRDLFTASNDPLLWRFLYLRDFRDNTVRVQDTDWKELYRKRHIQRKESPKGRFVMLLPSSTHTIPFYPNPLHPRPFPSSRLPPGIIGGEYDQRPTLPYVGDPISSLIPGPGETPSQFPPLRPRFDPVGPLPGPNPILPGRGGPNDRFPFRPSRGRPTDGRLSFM
B4: Cytochrome b-245 chaperone 1 (Homo sapiens), Q9BQA9 (parent)
chain: MYLQVETRTSSRLHLKRAPGIRSWSLLVGILSIGLAAAYYSGDSLGWKLFYVTGCLFVAVQNLEDWEEAIFDKSTGKVVLKTFSLYKKLLTLFRAGHDQVVVLLHDVRDVSVEEEKVRYFGKGYMVVLRLATGFSHPLTQSAVMGHRSDVEAIAKLITSFLELHCLESPTELSQSSDSEAGDPASQS
B5: U3 small nucleolar RNA-associated protein 14 homolog C (Homo sapiens), Q5TAP6 (parent)
chain: MNVNQVAENLALSHQEELVDLPKNYPLSENEDEGDSDGERKHQKLLEAIISLDGKNRRKLAERSEASLKVSEFSVSSEGSGEKLGLADLLEPVKTSSSLATVKKQLNRVKSKKVVELPLNKEKIEQIHREVAFSKTSQVLSKWDPIILKNQQAEQLVFPLGKEQPAIAPIEHALSGWKARTPLEQEIFNLLHKNKQPVTDPLLTPMEKASLQAMSLEEAKMHRAELQRARALQSYYEAKARKEKKIKSKKYHKVVKKGKAKKALKEFEQLQKVNPTVALEEMEKIENARMMERMSLKHQNSGKWAKSKAIMAKYDLEARQAMQEQLAKNKELTQKLQVASESEEEEGGTEVEELLVPHVANEVQMNVDGPNPWMFRSCTSDTKEAATQEDPEQVPELAAHEVSASEAEERPVAEEEILLREFEERQSLRKRSELNQDAEPASSQETKDSSSQEVLSELRALSQKLKEKHQSRKQKASSEGTVPQVQREEPAPEEAEPLLLQRSERVQTLEELEELGKEDCFQNKELPRPVLEGQQSERTPNNRPDAPKEKKEKEQLINLQNFLTTQSPSVRSLAVPTIIEELEDEEERDQRQMIKEAFAGDDVIRDFLKEKREAVEASKPKDVDLTLPGWGEWGGVGLKPSAKKRRQFLIKAPEGPPRKDKNLPNVIISEKRNIHAAAHQVQVLPYPFTHHRQFERTIQTPIGSTWNTQRAFQKLTTPKVVTKPGHIIKPIKAEDVGYQSSSRSDLPVIQRNPKRITTRHNKEEKL

Variants of: B1
Details: with rby1f_human RBMY1F

Which “effect of a mutation on the interaction” value does the source give for R87W here?
Its value is “with no effect”.

Variants of: B2
Details: with kanl1_human KANSL1, Q7Z3B3

How did the “effect of a mutation on the interaction” value turn out when S688L was run?
Its value is “with no effect”.

R8Q was tested. Which “effect of a mutation on the interaction” value did it give?
The value was “with no effect”.

Variants of: B3
Details: with fbx7_human FBXO7, Q9Y3I1

V192A was tested. Which “effect of a mutation on the interaction” value did it give?
Its value is “with no effect”.

Variants of: B4
Details: with BCL2L13, Q9BXK5
Sequence of BCL2L13, Q9BXK5 (Q9BXK5 whole entry): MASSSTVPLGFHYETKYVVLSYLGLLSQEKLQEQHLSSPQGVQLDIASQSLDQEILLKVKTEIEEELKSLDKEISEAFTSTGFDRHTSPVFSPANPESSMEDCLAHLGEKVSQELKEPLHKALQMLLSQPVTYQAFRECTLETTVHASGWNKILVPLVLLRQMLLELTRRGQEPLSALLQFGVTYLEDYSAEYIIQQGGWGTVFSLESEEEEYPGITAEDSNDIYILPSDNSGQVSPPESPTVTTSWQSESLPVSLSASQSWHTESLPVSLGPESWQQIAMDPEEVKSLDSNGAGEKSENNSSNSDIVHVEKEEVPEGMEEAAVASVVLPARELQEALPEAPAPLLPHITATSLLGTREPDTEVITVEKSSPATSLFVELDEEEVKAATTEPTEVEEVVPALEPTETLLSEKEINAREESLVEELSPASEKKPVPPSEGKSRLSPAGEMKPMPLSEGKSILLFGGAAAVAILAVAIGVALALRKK

For R129W, which “effect of a mutation on the interaction” value is on record?
The value was “with no effect”.

Variants of: B5
Details: with myome_human PDE4DIP

I170V was tested. Which “effect of a mutation on the interaction” value did it give?
The value was “with no effect”.

With V109D as the variant, how does the “effect of a mutation on the interaction” value read?
The value was “with no effect”.
